# Data taken from article PMC7948507, “Active site metals mediate an oligomeric equilibrium in Plasmodium M17 aminopeptidases” (The Journal of Biological Chemistry, 2020).
# Numbering of substitutions follows the chain as printed. Numbers in names are those of the source.
# B1: Plasmodium falciparum M17 aminopeptidase PfA-M17 (residues 84-605), wild type (enzyme, UniProt Q8IL11 84-605, looked up)
# chain: MASEVPQVVSLDPTSIPIEYNTPIHDIKVQVYDIKGGCNVEEGLTIFLVNNPGKENGPVKISSKVNDKNVSEFLKDENMEKFNVKLGTSKHFYMFNDNKNSVAVGYVGCGSVADLSEADMKRVVLSLVTMLHDNKLSKLTVVFEINVDKNLFRFFLETLFYEYMTDERFKSTDKNVNMEYIKHLGVYINNADTYKEEVEKARVYYFGTYYASQLIAAPSNYCNPVSLSNAAVELAQKLNLEYKILGVKELEELKMGAYLSVGKGSMYPNKFIHLTYKSKGDVKKKIALVGKGITFDSGGYNLKAAPGSMIDLMKFDMSGCAAVLGCAYCVGTLKPENVEIHFLSAVCENMVSKNSYRPGDIITASNGKTIEVGNTDAEGRLTLADALVYAEKLGVDYIVDIATLTGAMLYSLGTSYAGVFGNNEELINKILNSSKTSNEPVWWLPIINEYRATLNSKYADINNISSSVKASSIVASLFLKEFVQNTAWAHIDIAGVSWNFKARKPKGFGVRLLTEFVLNDAL
# notes: M17 leucyl aminopeptidase of Plasmodium falciparum, residues 84-605; residues 1-83 (asparagine-rich low complexity region) omitted; In solution a metal-dependent equilibrium of monomer, dimer, tetramer and hexamer; also called PfLAP; PfA-M17 WT; source: E. coli BL21 DE3, purified (Ni-NTA, SEC)
# B2: PfA-M17 (D379A + E461L) (enzyme)
# chain: B1 chain with D296A, E378L
# notes: also called PfA-M17(AL); PfA-M17 (AL); source: E. coli BL21 DE3, purified (Ni-NTA, SEC)
# B3: Pv-M17Δ125-151 (enzyme)
# chain: MATTVPQVVSLDPTTIPIDYHTPIDDLSIEVKDISAEACPADEGLIVFLLNSQIKINSSVKDNTINEFLKEGNMENFTGKLGTSKSFYIANDQKKYVSLAYVGCGPANEETELEIRKVAYALVTLLHDSKHKKVSIIFEIKIEEALFRFFLEHLFYEYVTDERFKSADKSTETDFIKNLSLHIANADAYKGQIDKARVYFYGTYYAAQLIAAPSNYCNPVSLSNAAVELAQKVNLECKILDVKELEELKMGAYLSVGKGSMYPNKFIHLTYKGAQTGASQNEKKKIALIGKGITFDSGGYNLKAAPGSMIDLMKFDMSGCAAVLGCAYCIGTIKPDNVEVHFLSAVCENMVSKNSYRPGDIITASNGKTIEVGNTDAEGRLTLADALVYAEKLGVDYIVDIATLTGAMLYSLGTSYAGVFGNNDQLINKILSSSKTSNEPVWWLPIINEYRSSLNSKYADLNNISSSVKASSVVASLFLKEFIENTPWAHIDIAGVSWNFKARKPKGFGVRLLTEFVLNDAV
# notes: also called Pv-M17 N-terminal loop deletion mutant; source: E. coli BL21 DE3, purified (Ni-NTA, SEC)
# B4: Plasmodium vivax M17 aminopeptidase Pv-M17 (residues 73-621), wild type (enzyme, UniProt A5K3U9 73-621, looked up)
# chain: MATTVPQVVSLDPTTIPIDYHTPIDDLSIEVKDISAEACPADEGLIVFLLNSAPKHSSSGGSGGNGGSAGSSGNGEGGAQIKINSSVKDNTINEFLKEGNMENFTGKLGTSKSFYIANDQKKYVSLAYVGCGPANEETELEIRKVAYALVTLLHDSKHKKVSIIFEIKIEEALFRFFLEHLFYEYVTDERFKSADKSTETDFIKNLSLHIANADAYKGQIDKARVYFYGTYYAAQLIAAPSNYCNPVSLSNAAVELAQKVNLECKILDVKELEELKMGAYLSVGKGSMYPNKFIHLTYKGAQTGASQNEKKKIALIGKGITFDSGGYNLKAAPGSMIDLMKFDMSGCAAVLGCAYCIGTIKPDNVEVHFLSAVCENMVSKNSYRPGDIITASNGKTIEVGNTDAEGRLTLADALVYAEKLGVDYIVDIATLTGAMLYSLGTSYAGVFGNNDQLINKILSSSKTSNEPVWWLPIINEYRSSLNSKYADLNNISSSVKASSVVASLFLKEFIENTPWAHIDIAGVSWNFKARKPKGFGVRLLTEFVLNDAV
# notes: M17 leucyl aminopeptidase of Plasmodium vivax, residues 73-621; N-terminal truncation of 72 residues; it is residues 73-621; Synthetic gene (DNA 2.0) in pJ404; also called PvLAP; Pv-M17 WT; source: E. coli BL21 DE3, purified (Ni-NTA, SEC)
# B5: Pv-M17 (D395A and E477L) (enzyme)
# chain: B4 chain with D323A, E405L
# notes: also called Pv-M17(AL); Pv-M17 (AL); source: E. coli BL21 DE3, purified (Ni-NTA, SEC)
# How the values were obtained:
# [1] = biological target: the molecule itself; assay: AUC; sedimentation velocity, 0.5 mg/ml, 20 °C, 40,000 rpm, 50 mM HEPES pH 8.0, 0.3 M NaCl, no metal added
# [2] = biological target: the molecule itself; assay: SEC-MALS; 100 μl samples at 3 mg/ml, Superdex S200 Increase 10/300 GL, 50 mM HEPES pH 8.0, 0.3 M NaCl, no metal added
# [3] = biological target: the molecule itself; assay: crystal structure; 0.1 M HEPES pH 6.5, 15% PEG 3350, 0.15 M (NH4)2SO4; two hexamers in the asymmetric unit
# [4] = biological target: the molecule itself; assay: SEC; in the presence of 100 mM EDTA
# [5] = biological target: the molecule itself; assay: AUC; sedimentation velocity, 0.5 mg/ml, 20 °C, 50 mM HEPES pH 8.0, 0.3 M NaCl with 50 μM MnCl2
Protein,stoichiometry N [2],binding result [1],other results
B1,6,–,stoichiometry N [1]: 2
B2,–,binds,–
B3,–,–,stoichiometry N [3]: 6
B4,2,–,stoichiometry N [4]: 4; stoichiometry N [5]: 6
B5,–,binds,–
